According to patent US20130115189A1:
One block for each substance: values may come before it.

Columns and labels:
IL-1 receptor [1] = experiment: homogeneous time-resolved fluorescence (HTRF) receptor binding assay
IL-1 receptor [2] = experiment: cell-based or functional assay

Substance: MA-wt (interleukin-1β wild type sequence containing an N-terminal methionine) (from UniProt P01584 117-269) (ligand)
- IC50 (IL-1 receptor [1]): 20 nM

Substance: MA-wt-CG (from UniProt P01584 117-269) (ligand)
- IC50 (IL-1 receptor [1]): 31 nM

Substance: MA-wt-His6 (from UniProt P01584 117-269) (ligand)
- IC50 (IL-1 receptor [1]): 23 nM

Substance: MDI-D145K-CG (from UniProt P01584 118-269) (ligand)
- Bioactivity reduction (Cytotoxicity, A375 cells), ratio of LC50 to MA-wt (IL-1 receptor [2]): 600000 fold
- Bioactivity reduction (IL6 release, HeLa cells), ratio of EC50 to MA-wt (IL-1 receptor [2]): 60000 fold
- IC50 (IL-1 receptor [1]): 6770 nM

Substance: MDI-D145K-His6 (from UniProt P01584 118-269) (ligand)
- Bioactivity reduction (Cytotoxicity, A375 cells), ratio of LC50 to MA-wt (IL-1 receptor [2]): 600000 fold
- Bioactivity reduction (IL6 release, HeLa cells), ratio of EC50 to MA-wt (IL-1 receptor [2]): 60000 fold
- IC50 (IL-1 receptor [1]): 4810 nM

The remaining substances from weak to strong by IC50 (IL-1 receptor [1]), led by results:

- Bioactivity reduction (IL6 release, HeLa cells), ratio of EC50 to MA-wt (IL-1 receptor [2]): 43 fold
- IC50 (IL-1 receptor [1]): 1340 nM
Substance: MDI-wt-His6 (from UniProt P01584 118-269) (ligand)
- Bioactivity reduction (Cytotoxicity, A375 cells), ratio of LC50 to MA-wt (IL-1 receptor [2]): 700 fold

- IC50 (IL-1 receptor [1]): 28 nM
Substance: MA-D145K-His6 (from UniProt P01584 117-269) (ligand)
